Test results taken from paper PMC6183340 (2018).
Each block holds one binder with its values, some of them ahead of it.

Tests used:
[1] = target: T1, WT1 (modified WT1 235 peptide, mWT1 235) peptide on HLA-A*24:02 (human); assay: NFAT-GFP reporter; TCR-transduced 2D3 cells, T2-2402 and titrated mWT1 235 peptide; full-length, on cells
T1 peptide: CYTWNQMNL

[2] = target: T2, WT1 (natural WT1 235 peptide, nWT1 235) peptide on HLA-A*24:02 (human); assay: NFAT-GFP reporter; TCR-transduced 2D3 cells, T2-2402 and titrated nWT1 235 peptide; full-length, on cells
T2 peptide: CMTWNQMNL

- EC50 of peptide [1]: 976 nM
B1: FSK1-TCR (TCR)
alpha TRAV19*01 TRAJ26*01 CDR3: CALSAAYGQNFVF
beta TRBV6-5*01 TRBJ2-1*01 CDR3: CASSYGKGLYNEQFF

- EC50 of peptide [1]: 1780 nM
B2: TM-L1-TCR (TCR)
alpha TRAV17*01 TRAJ43*01 CDR3: CATDPGYNNDMRF
beta TRBV20-1*01 TRBJ2-2*01 CDR3: CSARGQRELSGELFF

- EC50 of peptide [1]: 29.3 nM
- EC50 of peptide [2]: 180 nM
B3: TM-H2-TCR (TCR)
alpha TRAV20*02 TRAJ52*01 CDR3: CAVRGGRAGGTSYGKLTF
beta TRBV9*01 TRBJ2-3*01 CDR3: CASSVFGSSTDTQYF
